Changes are numbered by the printed parent chain. Numbers in names are those of the source. Read-outs that look alike come from different tables or passages of the source.
B1: Fab-NTF(LC)-1 format, MMP3-D4K-4, RF61-D (Fab)
heavy: QLQLQESGPGLVKPSETLSLTCTVSGGSISRGSHYWGWIRQPPGKGLEWIGSIYYSGNTYFNPSLKSRVTISVDTSKNQFSLKLSSVTAADTAVYYCARLGPDDYTLDGMDVWGQGTTVTVSSASTKGPSVFPLAPSSKSTSGGTAALGCLVKDYFPEPVTVSWNSGALTSGVHTFPAVLQSSGLYSLSSVVTVPSSSLGTQTYICNVNHKPSNTKVDKKVEPKSCDKTHTDYKDDDDK
light: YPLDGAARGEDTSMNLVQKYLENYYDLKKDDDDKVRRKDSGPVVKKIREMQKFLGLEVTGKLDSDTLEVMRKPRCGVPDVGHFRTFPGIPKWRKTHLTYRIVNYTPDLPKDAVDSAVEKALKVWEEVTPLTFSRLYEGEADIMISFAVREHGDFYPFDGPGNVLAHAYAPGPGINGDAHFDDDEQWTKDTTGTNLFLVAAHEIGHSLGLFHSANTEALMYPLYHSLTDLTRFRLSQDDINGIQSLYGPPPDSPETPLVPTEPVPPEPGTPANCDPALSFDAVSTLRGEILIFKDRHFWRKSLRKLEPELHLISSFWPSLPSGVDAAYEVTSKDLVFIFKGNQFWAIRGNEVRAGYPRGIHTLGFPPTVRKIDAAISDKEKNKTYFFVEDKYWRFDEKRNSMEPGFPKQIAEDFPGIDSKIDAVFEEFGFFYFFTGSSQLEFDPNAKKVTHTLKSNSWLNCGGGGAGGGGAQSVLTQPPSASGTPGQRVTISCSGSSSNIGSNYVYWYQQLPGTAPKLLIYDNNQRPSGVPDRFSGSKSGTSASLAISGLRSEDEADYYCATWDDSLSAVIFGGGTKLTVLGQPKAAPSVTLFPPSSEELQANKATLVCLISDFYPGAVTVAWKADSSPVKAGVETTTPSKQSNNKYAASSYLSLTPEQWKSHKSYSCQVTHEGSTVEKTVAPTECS
notes: MMP3-D4K-4 fused to the N-terminus of the light chain; also called RF61-D Fab fusion
B2: IgG-CTF-2 format, neprolysin, crenezumab G33S(HC) (antibody)
heavy: not shown
light: DIVMTQSPLSLPVTPGEPASISCRSSQSLVYSNGDTYLHWYLQKPGQSPQLLIYKVSNRFSGVPDRFSGSGSGTDFTLKISRVEAEDVGVYYCSQSTHVPWTFGQGTKVEIKRTVAAPSVFIFPPSDEQLKSGTASVVCLLNNFYPREAKVQWKVDNALQSGNSQESVTEQDSKDSTYSLSSTLTLSKADYEKHKVYACEVTHQGLSSPVTKSFNRGEC
notes: Variant of m9
B3: IgG-CTF-2 format, neprolysin, solanezumab (antibody)
heavy: not shown
light: B2 light with I2V, P15L, E17Q, V30I, N33D, D35N, T36A, Y41F, Q50R
notes: Human IgG1 with NEP fused to the C-terminus of both heavy chains; also called solanezumab-NEP fusion
B4: IgG-CTF-2 format, neprolysin, crenezumab (antibody)
heavy: not shown
light: B2 light
notes: Human IgG1 with NEP fused to the C-terminus of both heavy chains; also called crenezumab-NEP fusion
B5: IgG-CTF-2 format, neprolysin, crenezumab G33S(HC)/S56F(LC) (antibody)
heavy: not shown
light: B2 light with S61F
notes: Variant of m9
B6: anti-gD Control (antibody, human IgG1, kappa)
heavy chain with neprolysin fused to its C-terminus: not shown
light chain: DIQMTQSPSSLSASVGDRVTITCRASASVDSYGNSFIHWYQQKPGKAPKLLIYRASDLESGVPSRFSGSGSGTDFTLTISSLQPEDFATYYCQQNYADPFTFGQGTKVEIKRTVAAPSVFIFPPSDEQLKSGTASVVCLLNNFYPREAKVQWKVDNALQSGNSQESVTEQDSKDSTYSLSSTLTLSKADYEKHKVYACEVTHQGLSSPVTKSFNRGEC
B7: RF61 chimeric antibody variant R50D LC, S62P L95N T100aA D100cE M100eF HC (mouse IgG2a constant domains) (antibody, V domains shown)
VH: QLQLQESGPGLVKPSETLSLTCTVSGGSISRGSHYWGWIRQPPGKGLEWIGSIYYSGNTYFNPPLKSRVTISVDTSKNQFSLKLSSVTAADTAVYYCARNGPDDYALEGFDVWGQGTTVTVSS
VL: QSVLTQPPSASGTPGQRVTISCSGSSSNIGSNYVYWYQQLPGTAPKLLIYDNNQRPSGVPDRFSGSKSGTSASLAISGLRSEDEADYYCATWDDSLSAVIFGGGTKLTVL
notes: Round 3 variant, one of the eight; copies: 2 + 2
B8: RF61 chimeric antibody variant R50N LC, L95N D99H T100aA HC (mouse IgG2a constant domains) (antibody, V domains shown)
VH: B7 VH with P64S, D104H, E108D, F110M
VL: B7 VL with D51N
notes: as for B7
B9: RF61 chimeric antibody variant R50N Y34F LC, S62P D99H D100cE M100eF HC (mouse IgG2a constant domains) (antibody, V domains shown)
VH: B7 VH with N100L, D104H, A106T
VL: B7 VL with Y35F, D51N
notes: as for B7
B10: RF61 chimeric antibody variant R50D Y34F LC, S62P D99H M100eF HC (mouse IgG2a constant domains) (antibody, V domains shown)
VH: B7 VH with N100L, D104H, A106T, E108D
VL: B7 VL with Y35F
notes: as for B7
B11: RF61 chimeric antibody variant R50N LC, S62P L95N D99H T100aA D100cE M100eF HC (mouse IgG2a constant domains) (antibody, V domains shown)
VH: B7 VH with D104H
VL: B7 VL with D51N
notes: as for B7
B12: RF61 chimeric antibody variant R50D Y34F LC, S62P L95N D100cE M100eF HC (mouse IgG2a constant domains) (antibody, V domains shown)
VH: B7 VH with A106T
VL: B7 VL with Y35F
notes: as for B7

Key:
[1] = target: T1, anti-HER2 antibody 4D5, IgG1 subtype; test: SPR: 4D5 IgG1 captured on Protein L chip, RF61-MMP3 fusion constructs injected; monovalent affinity of the targeting arm
T1 construct: Captured on a Protein L chip as the IgG1 target of the RF61-MMP3 fusion constructs
Method: RF61 surface plasmon resonance: RF61 affinity for human IgG was assessed with a Biacore 8K+ or T200. For rounds one and two of affinity maturation, the Fc domain of human IgG1 was captured on a Series S Protein A chip according to the manufacturer's protocols. Serial dilutions of the RF61 Fab variants were prepared in HBS-P+ buffer. The dilutions were passed over the chip for 4 min, followed by a 5 min dissociation step. Variants were assessed using the response units at the point of late analyte binding normalized to Fc capture level. […] Serial dilutions of human IgG1 Fc in HBS-P+ were passed over the chip for 10 minutes, followed by a 6 min dissociation step. Affinity constants were obtained through kinetic fitting using the Biacore Evaluation Software (GE). […] A single 1000 nM concentration of each binding ablation variant was passed over the chip for 10 minutes, followed by a 6 min dissociation step. […] Serial dilutions of the RF61-MMP3 fusion constructs were prepared in HBS-P+ buffer. The dilutions were flowed over the chip for 3 min, followed by 8 min of dissociation. […] Affinity constants were determined as described above.

Aβ(1-40) [2] = target: T2, Aβ(1-40) (UniProt P05067 672-711); test: cell-based or functional assay
Aβ(1-28) = target: T3, Aβ(1-28) (UniProt P05067 672-699); test: SPR (Biacore T200): fusion captured on a protein A chip, Aβ(1-28) injected as analyte
T3 construct: domain: Aβ(1-28); also called amyloid-β 1-28
Method: Aβ surface plasmon resonance: Solution affinity constants for anti-Aβ antibodies were assessed on a Biacore™ T200. […] Affinity constants were obtained through kinetic fitting using the Biacore Evaluation Software.

Aβ(1-40) [3] = target: T2, Aβ(1-40); test: cell-based or functional assay; remark: listed apart in the source
Aβ(1-42) [4] = target: T4, Aβ(1-42) (UniProt P05067 672-713); test: cell-based or functional assay
Aβ(1-40) [5] = target: T2, Aβ(1-40); test: cell-based or functional assay; remark: listed apart in the source
Aβ(1-42) [6] = target: T4, Aβ(1-42); test: cell-based or functional assay; remark: listed apart in the source
human IgG1 Fc = target: T5, human IgG1 Fc (human, UniProt P01857-1 104-330 = IgG part, limits assumed); test: SPR: chimeric antibody captured by anti-mouse antibody on CM5 chip, human IgG1 Fc injected
T5 construct: domain: Fc; also called Fc domain of human IgG1

Binder | EC50 of Aβ(1-40) cleavage (intact Aβ by ELISA) (Aβ(1-40) [2]) [nM] | Kd (Aβ(1-28)) [nM] | koff (Aβ(1-28)) [s⁻¹] | kon (Aβ(1-28)) [M⁻¹ s⁻¹] | binding result (human IgG1 Fc) | further results
B1 | – | – | – | – | – | Kd [1]: 104 nM
B2 | 1.6 | 1.8 | 0.0013 | 750000 | – | –
B3 | 3.9 | 0.5 | 0.00014 | 300000 | – | –
B4 | 1.3 | 4.7 | 0.0041 | 880000 | – | EC50 of Aβ(1-40) cleavage, fold lower than the solanezumab-NEP fusion (Aβ(1-40) [3]): 3 fold; potency of Aβ cleavage, fold over the non-targeted control (Aβ(1-40) [3]): ~15 fold; potency of Aβ cleavage, fold over the non-targeted control (Aβ(1-42) [4]): ~9 fold; EC50 of Aβ(1-40) cleavage (intact Aβ by ELISA) (Aβ(1-40) [5]): 1.1 nM; EC50 of Aβ(1-42) cleavage (intact Aβ by ELISA) (Aβ(1-42) [6]): 5 nM
B5 | 2.3 | 0.8 | 0.0006 | 750000 | – | –
B6 | 11 | – | – | – | – | –
B7 | – | – | – | – | binds | –
B8 | – | – | – | – | binds | –
B9 | – | – | – | – | binds | –
B10 | – | – | – | – | binds | –
B11 | – | – | – | – | binds | –
B12 | – | – | – | – | binds | –

Source: patent publication US20260183373A1 (Genentech, published 2026)
